# In doi:10.1101/2023.09.12.557426 (bioRxiv, 2023):
# B1: xNup98-Nb1t (VHH)
# VHH: QVQLVESGGGPVEAGGSLRLSCAASGRSFSNSVMAWFRQAPGKEREFLSVLNWSSGRTSIADSVKGRFTMSRDPAKITVYLQMNGLKPEDTAVYYCAASNRGSLYTLDNQNRYEDWGQGTQVTVSS
# B2: xNup98-Nb1t, fluorophore-labelled (VHH)
# VHH: B1 VHH
# B3: xNup93-Nb2t (VHH)
# VHH: DVQLVESGGGLVQPGGSLRLSCVASGFTFSRVGMGWVRQAPGKGLEWVSDINASGGTGYADSVKGRFAISRDNAKNTLYLQMNRLKPEDTAVYYCAKMMDTAMIEAGIIKPAGQGTQVTVSS
# B4: xhNup93-Nb4i, biotinylated at two ectopic cysteines (VHH)
# VHH: QVQLVESGGGVVQTGDSLMLSCTVSGHTIDNWAMGWFRQTPRKQREFVAAIDKRGTGAIYGNSVKGRFTVSRDNAKNMVYLRMNSLKPEDTAVYFCAVDQLNAGLGDVSYDYDYWGQGTQVTVSS
# B5: (biotin)-Avi-SUMO^Eu1-xhNup93-Nb4i (VHH)
# VHH: B4 VHH
# B6: xhNup93-Nb4i (VHH)
# VHH: B4 VHH
# B7: hNup35(173-248, the RRM domain) (domain or fragment)
# chain: DSWVTVFGFPQASASYILLQFAQYGNILKHVMSNTGNWMHIRYQSKLQARKALSKDGRIFGESIMIGVKPCIDKSV
# B8: xhNup35-Nb1t (VHH)
# VHH: QVQLVESGGGLVQAGGSLRLSCVGTGNISSAYTMAWYRQAAGKEREVVAGILNGGSTHYADSVKGRFTISRDNAKNTVYLQMNSLQPEDTGVYCCHVVIESTRFVYDHYWGQGTRVTVSS
# B9: xhNup35-Nb1t, fluorophore-labelled (VHH)
# VHH: B8 VHH
# B10: xhNup98-Nb2i (VHH)
# VHH: QVQLVESGGGLAKPGGSLRLSCVATGTFRSMEDVGWYRQAPGKDRELVAEITTLGKVTYADSVKGRFTISRDDAKNAVYLQMSDLKSEDTAVYYCNIEADQTKGIGYVVYPYWGQGTRVTVSS
# B11: (biotin)-Avi-SUMO^Eu1-xhNup98-Nb2i (VHH)
# VHH: B10 VHH
# What was measured:
# [1] = biological target: His14-NEDD8 tagged APD of xtNup98(715-866) (Xenopus tropicalis, UniProt A0A1B8XZT4); assay: pull-down
# [2] = biological target: T1, Xenopus Nup98 from egg extract (Xenopus laevis, endogenous in egg …, UniProt A0A8J1MFV7); assay: immunostaining of cells or tissue
# [3] = biological target: T2, human Nup98 of HeLa cells (human (endogenous in HeLa), UniProt P52948); assay: immunostaining of cells or tissue
# T2 sequence (P52948 1-880): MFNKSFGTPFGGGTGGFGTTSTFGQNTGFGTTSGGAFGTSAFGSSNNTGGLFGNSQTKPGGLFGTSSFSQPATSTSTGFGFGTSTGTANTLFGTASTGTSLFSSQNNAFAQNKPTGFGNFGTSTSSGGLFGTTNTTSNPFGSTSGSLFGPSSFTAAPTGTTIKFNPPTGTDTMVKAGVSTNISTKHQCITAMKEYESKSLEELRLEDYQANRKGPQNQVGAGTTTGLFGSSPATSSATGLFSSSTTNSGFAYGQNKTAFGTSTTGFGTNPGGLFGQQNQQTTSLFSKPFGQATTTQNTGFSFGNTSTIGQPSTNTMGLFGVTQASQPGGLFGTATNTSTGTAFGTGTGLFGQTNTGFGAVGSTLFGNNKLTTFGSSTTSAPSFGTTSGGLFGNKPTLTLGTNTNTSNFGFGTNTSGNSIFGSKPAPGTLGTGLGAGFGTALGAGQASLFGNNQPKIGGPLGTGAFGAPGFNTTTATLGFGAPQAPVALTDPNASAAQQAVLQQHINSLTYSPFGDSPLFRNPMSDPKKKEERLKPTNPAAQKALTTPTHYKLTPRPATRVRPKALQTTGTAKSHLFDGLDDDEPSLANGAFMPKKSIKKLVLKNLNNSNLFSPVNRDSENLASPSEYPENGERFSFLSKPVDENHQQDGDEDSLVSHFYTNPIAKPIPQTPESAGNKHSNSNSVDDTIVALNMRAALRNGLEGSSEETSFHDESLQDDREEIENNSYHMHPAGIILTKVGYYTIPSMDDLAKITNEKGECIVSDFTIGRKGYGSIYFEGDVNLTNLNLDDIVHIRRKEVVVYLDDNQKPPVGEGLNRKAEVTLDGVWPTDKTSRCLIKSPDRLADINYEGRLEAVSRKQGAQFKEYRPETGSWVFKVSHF
# xlNup93(168-820) = xlNup93(168-820) (Xenopus laevis, UniProt Q7ZX96); assay: cryo-EM structure
# xlNup93(168-820), sequence (Q7ZX96 168-820): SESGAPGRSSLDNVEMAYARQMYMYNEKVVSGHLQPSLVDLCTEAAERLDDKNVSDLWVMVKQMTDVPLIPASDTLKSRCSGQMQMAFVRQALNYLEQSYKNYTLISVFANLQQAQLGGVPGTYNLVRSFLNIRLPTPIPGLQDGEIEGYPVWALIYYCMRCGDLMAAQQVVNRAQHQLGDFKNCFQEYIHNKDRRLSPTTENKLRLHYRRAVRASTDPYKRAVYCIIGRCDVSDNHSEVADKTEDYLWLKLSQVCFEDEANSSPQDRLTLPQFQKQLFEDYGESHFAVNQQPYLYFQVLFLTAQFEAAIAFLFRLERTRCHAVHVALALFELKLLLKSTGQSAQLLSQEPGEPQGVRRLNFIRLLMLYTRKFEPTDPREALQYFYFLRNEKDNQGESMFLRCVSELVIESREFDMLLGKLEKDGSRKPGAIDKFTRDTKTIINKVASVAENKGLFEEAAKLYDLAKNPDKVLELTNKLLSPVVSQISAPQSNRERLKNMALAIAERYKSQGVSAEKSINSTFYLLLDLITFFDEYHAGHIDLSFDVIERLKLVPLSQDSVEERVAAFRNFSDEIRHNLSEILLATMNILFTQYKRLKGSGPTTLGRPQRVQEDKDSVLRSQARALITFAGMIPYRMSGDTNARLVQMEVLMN
# [4] = biological target: Xenopus Nup93, target protein of the BLI measurement (Xenopus, UniProt Q7ZX96); assay: BLI
# Xenopus Nup93, target protein of the BLI measurement, sequence (Q7ZX96 whole entry): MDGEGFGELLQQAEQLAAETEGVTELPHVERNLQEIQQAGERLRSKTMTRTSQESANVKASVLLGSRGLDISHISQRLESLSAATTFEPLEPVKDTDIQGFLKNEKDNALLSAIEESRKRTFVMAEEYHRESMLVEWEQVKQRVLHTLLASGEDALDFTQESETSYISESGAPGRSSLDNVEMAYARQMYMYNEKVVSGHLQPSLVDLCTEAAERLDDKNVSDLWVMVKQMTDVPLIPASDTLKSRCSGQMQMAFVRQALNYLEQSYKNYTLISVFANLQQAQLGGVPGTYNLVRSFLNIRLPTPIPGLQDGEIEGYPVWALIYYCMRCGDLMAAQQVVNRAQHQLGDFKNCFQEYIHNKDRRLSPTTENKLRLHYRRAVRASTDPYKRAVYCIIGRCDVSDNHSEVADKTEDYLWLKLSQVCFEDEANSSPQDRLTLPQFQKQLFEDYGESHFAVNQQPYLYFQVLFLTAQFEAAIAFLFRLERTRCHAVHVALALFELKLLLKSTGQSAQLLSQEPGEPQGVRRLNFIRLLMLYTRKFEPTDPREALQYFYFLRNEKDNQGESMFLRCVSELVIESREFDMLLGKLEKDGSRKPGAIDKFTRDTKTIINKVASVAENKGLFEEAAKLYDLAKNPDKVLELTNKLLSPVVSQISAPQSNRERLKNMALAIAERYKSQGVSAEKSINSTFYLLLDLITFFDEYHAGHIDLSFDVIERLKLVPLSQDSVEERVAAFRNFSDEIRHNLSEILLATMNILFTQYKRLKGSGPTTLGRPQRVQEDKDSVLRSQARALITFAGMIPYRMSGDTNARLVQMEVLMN
# [5] = biological target: human Nup93 from HeLa lysate (human (endogenous in HeLa), UniProt Q8N1F7); assay: pull-down
# human Nup93 from HeLa lysate, sequence (Q8N1F7 whole entry): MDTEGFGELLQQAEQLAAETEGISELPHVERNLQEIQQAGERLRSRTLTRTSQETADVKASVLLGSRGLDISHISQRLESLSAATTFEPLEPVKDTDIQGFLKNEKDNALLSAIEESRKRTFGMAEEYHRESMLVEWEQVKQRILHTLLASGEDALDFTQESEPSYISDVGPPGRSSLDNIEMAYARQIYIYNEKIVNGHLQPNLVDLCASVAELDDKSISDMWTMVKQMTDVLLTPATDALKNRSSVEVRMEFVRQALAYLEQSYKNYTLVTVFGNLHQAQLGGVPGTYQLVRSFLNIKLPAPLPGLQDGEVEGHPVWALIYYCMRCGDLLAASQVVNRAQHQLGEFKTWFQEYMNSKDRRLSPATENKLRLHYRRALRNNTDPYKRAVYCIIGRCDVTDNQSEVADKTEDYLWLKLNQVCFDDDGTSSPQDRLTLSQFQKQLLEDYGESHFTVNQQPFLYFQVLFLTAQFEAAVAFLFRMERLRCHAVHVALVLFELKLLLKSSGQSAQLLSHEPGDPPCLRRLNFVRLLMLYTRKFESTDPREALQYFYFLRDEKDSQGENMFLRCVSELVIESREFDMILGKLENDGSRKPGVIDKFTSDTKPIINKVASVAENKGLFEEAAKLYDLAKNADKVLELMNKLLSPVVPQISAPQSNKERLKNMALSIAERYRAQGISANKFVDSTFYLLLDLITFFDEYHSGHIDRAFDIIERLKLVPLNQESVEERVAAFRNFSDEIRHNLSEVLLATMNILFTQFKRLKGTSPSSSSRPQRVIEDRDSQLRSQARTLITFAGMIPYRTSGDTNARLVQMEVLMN
# [6] = biological target: Xenopus Nup93 from egg extract (Xenopus laevis (endogenous in egg …, UniProt Q7ZX96)); assay: pull-down
# Xenopus Nup93 from egg extract (Xenopus laevis, sequence (Q7ZX96 whole entry): as the sequence (Q7ZX96 whole entry) above
# crystal structure = biological target: the molecule itself; assay: crystal structure
# [7] = biological target: hNup35(173-248, the RRM domain) (human, UniProt Q8NFH5); assay: crystal structure
# [8] = biological target: Xenopus Nup35 from egg extract, in newly assembled NPCs (Xenopus laevis, UniProt I1VEB0); assay: immunostaining of cells or tissue
# [9] = biological target: human Nup35 in NPCs of HeLa cells (Homo sapiens (HeLa), UniProt Q8NFH5); assay: immunostaining of cells or tissue
# human Nup35 in NPCs of HeLa cells, sequence (Q8NFH5 whole entry): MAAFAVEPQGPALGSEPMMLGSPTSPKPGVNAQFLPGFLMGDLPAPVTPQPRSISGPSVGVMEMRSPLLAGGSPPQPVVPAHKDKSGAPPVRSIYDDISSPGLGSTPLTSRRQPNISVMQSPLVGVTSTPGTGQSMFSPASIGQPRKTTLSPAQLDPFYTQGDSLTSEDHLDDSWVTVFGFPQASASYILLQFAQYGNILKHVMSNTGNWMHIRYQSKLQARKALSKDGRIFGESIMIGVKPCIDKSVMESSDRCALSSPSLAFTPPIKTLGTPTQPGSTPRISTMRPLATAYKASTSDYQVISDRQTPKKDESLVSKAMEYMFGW
# [10] = biological target: T1, Xenopus Nup98 from egg extract; assay: pull-down
# [11] = biological target: T2, human Nup98 of HeLa cells; assay: pull-down
binder,measurement,setting,value
B1,binding result,[1],binds
B2,binding result,[2],binds
same,binding result,[3],no binding (tested: 35 nM)
B3,binding result,xlNup93(168-820),binds
B4,binding result,[4],binds
B5,binding result,[5],binds
same,binding result,[6],binds
B6,binding result,xlNup93(168-820),binds
B7,binding result,crystal structure,binds
B8,binding result,[7],binds
B9,binding result,[8],binds
same,binding result,[9],binds
B10,binding result,[1],binds
B11,binding result,[10],binds
same,binding result,[11],binds
